For assay [1], the target named is T1, CD52 peptide #741.
T1 construct: also called CD52 peptide #741 chip
In words: BIACORE (SPR), CD52 peptide #741 chip; week 0, reference of the normalization.
Description: (§1) The proteins (85 μg) were diluted in PBS, pH 7.2, to 0.4 mg/ml, and incubated at 45° C. for 4 weeks. Their binding affinity to CD52 peptide was measured on BIACORE™.

The target in assay [2] is T1, CD52 peptide #741. In words: BIACORE (SPR), CD52 peptide #741 chip, preliminary constant; antibody after 2 weeks at 45C, pH 7.2 in PBS.
Description: as §1
Assay [3] has as its target T1, CD52 peptide #741. The assay can be described thus: BIACORE (SPR), CD52 peptide #741 chip; antibody after 4 weeks at 45C, pH 7.2 in PBS. For orientation: SPR reads the build-up and loss of mass on a sensor chip optically.
Description: as §1
Assay [4] has as its target T1, CD52 peptide #741. In words: BIACORE (SPR), CD52 peptide #741 chip, preliminary constant; antibody at week 0 (before incubation).
Description: as §1
The target of assay [5] is T1, CD52 peptide #741. The assay can be described thus: BIACORE (SPR), CD52 peptide #741 chip; antibody after 2 weeks at 45C, pH 7.2 in PBS.
Description: as §1
The target in assay [6] is T1, CD52 peptide #741. The assay can be described thus: BIACORE (SPR), CD52 peptide #741 chip, preliminary constant; antibody after 4 weeks at 45C, pH 7.2 in PBS.
Description: as §1
For assay [7], the target named is T1, CD52 peptide #741. The assay can be described thus: BIACORE (SPR), CD52 peptide #741 chip, apparent KD; antibody after 2 weeks at 45C, 3 component buffer (graph title: 45C pH7.4).
Excerpt: (§2) Aliquots were taken at Week 2 and Week 4 (T2 and T4) to assess their affinity to CD52 peptide by BIACORE™.
The target in assay [8] is T2, CD52 peptide mimotope (CGQNDTSQTSSPSAD).
T2 construct: Immobilized at a low level on a CM5 chip via thiol chemistry using the N-terminal Cys; also called CD52 peptide chip
T2 peptide: CGQNDTSQTSSPSAD
In words: BIACORE, CD52 peptide on CM5 chip; antibody from HEK293.
Description: (§3) Several concentrations of anti-CD52 antibody made in HBS-EP running buffer (1 to 20 nM) were injected over the surface to monitor the binding. Kinetic analysis was performed using Scrubber2 software.

Assay [9] addresses T1, CD52 peptide #741. The assay can be described thus: BIACORE (SPR), CD52 peptide #741 chip, apparent KD; antibody after 2 weeks at 37C, 3 component buffer pH 7.5.
Excerpt: as §2
Assay [10] deals with T2, CD52 peptide mimotope (CGQNDTSQTSSPSAD). The assay can be described thus: BIACORE (SPR), CD52 peptide, purified antibody; concentrations used for fit 7.5nM - 0.2nM.
Assay [11] concerns the target T1, CD52 peptide #741. In words: BIACORE (SPR), CD52 peptide #741 chip, apparent KD; antibody after 4 weeks at 37C, 3 component buffer pH 7.5.
Excerpt: as §2
The target of assay [12] is T2, CD52 peptide mimotope (CGQNDTSQTSSPSAD). In words: BIACORE, CD52 peptide on CM5 chip; antibody from CHO; CHO-produced Ab26.
Description: as §3
For assay [13], the target named is T1, CD52 peptide #741. In words: BIACORE (SPR), CD52 peptide #741 chip, apparent KD; table 'after 37C incubation', T0, 3 component buffer pH 7.5.
Excerpt: as §2
The target of assay [14] is T2, CD52 peptide mimotope (CGQNDTSQTSSPSAD). In words: BIACORE (SPR), CD52 peptide, antibody purified from CHO cells; inset table.
Description: as §3
Assay [15] shares this target. In words: BIACORE (SPR), CD52 peptide, purified antibody; concentrations used for fit 240nM - 0.4nM.
The target is the same in assay [16]. In words: BIACORE (SPR), CD52 peptide, purified antibody; concentrations used for fit 240nM - 0.4nM; sheet's note to the asterisk: for more accurate KD, a higher concentration range should be used.
For assay [17] the target is unchanged. The assay can be described thus: BIACORE (SPR), CD52 peptide, purified antibody; concentrations used for fit 240nM - 1.9nM; sheet's note to the asterisk: for more accurate KD, a higher concentration range should be used.
Assay [18] shares this target. The assay can be described thus: BIACORE (SPR), CD52 peptide, purified antibody; concentrations used for fit 240nM - 1.9nM.
Assay [19] has the same target. In words: BIACORE, CD52 peptide on CM5 chip.
Description: as §3
For assay [20] the target is unchanged. In words: BIACORE, CD52 peptide on CM5 chip; antibody from HEK293; HEK293-produced Ab1; higher concentrations, up to 1900 nM.
Description: as §3
Assay [21] has the same target. The assay can be described thus: BIACORE (SPR), CD52 peptide, antibody purified from CHO cells; inset table, column kd; the sheet prints no unit, unit from Table 5 of the text.
Description: as §3
Assay [22] has the same target. The assay can be described thus: BIACORE, CD52 peptide on CM5 chip; antibody from CHO; CHO-produced Ab1; higher concentrations, up to 1900 nM.
Description: as §3
Assay [23] has the same target. The assay can be described thus: BIACORE (SPR), CD52 peptide, antibody purified from CHO cells; inset table, column ka; the sheet prints no unit, unit from Table 5 of the text.
Description: as §3

Substitutions are numbered along the chain they refer to. “And” between values parts separate entries of the source, which are not always exact repeats. Equal values may be shown once. Bounds are passed on as bounds.

By koff is commonly meant the rate constant with which the complex falls apart. One may read the kon as the rate constant with which the complex forms. High values mean fast association, low ones slow association.

B1: Ab11 (antibody, human IgG1, kappa, V domains shown)
VH: EVQLVESGGGLVQPGGSLRLSCAASGFPFSNYWMNWVRQAPGKGLEWVGQIRLKSNNYATHYAESVKGRFTISRDDSKNSLYLQMNSLKTEDTAVYYCTPIDYWGQGTTVTVSS
VL: DIVMTQTPLSLSVTPGQPASISCKSSQSLLYSNDKTYLNWVLQKPGQSPQRLIYLVSKLDSGVPDRFSGSGSGTDFTLKISRVEAEDVGVYYCVQGSHFHTFGQGTKLEIKR
On to B1, for which the “%T0 (affinity relative to T0)” value with CD52 peptide #741 [1] was determined as 100%; with CD52 peptide #741 [3] it was 46.5%; with CD52 peptide #741 [5], 24.9%. Besides, the Kd in the assay with CD52 peptide #741 [2] is 16.5 nM; with CD52 peptide #741 [4] it was 4.12 nM; with CD52 peptide #741 [6], 8.85 nM.

B2: Ab22 (antibody, human IgG1, kappa, V domains shown)
VH: B1 VH
VL: B1 VL with D34S
In the case of B2, the Kd in the assay with CD52 peptide #741 [4] turned out to be 2.44 nM; in the assay with CD52 peptide #741 [6], 187 nM.

B3: Ab14 (antibody, human IgG1, kappa, V domains shown)
VH: B1 VH
VL: B1 VL with D34H
Consider B3, for which the Kd was 8.97 nM with CD52 peptide #741 [2], 3.5 nM with CD52 peptide #741 [4] and 33.3 nM with CD52 peptide #741 [6].

B4: Ab21 (antibody, human IgG1, kappa, V domains shown)
VH: B1 VH
VL: B1 VL with D34R
For B4, the Kd in the assay with CD52 peptide #741 [4] was 2.05 nM; with CD52 peptide #741 [6] it was 4.15 nM.

B5: Ab20 (antibody, human IgG1, kappa, V domains shown)
VH: B1 VH
VL: B1 VL with D34Q
With B5, the Kd with CD52 peptide #741 [2] was determined as 6.8 nM; with CD52 peptide #741 [4], 3.49 nM.

B6: Ab26 (antibody, human IgG1, kappa, V domains shown)
VH: B1 VH
VL: B1 VL with D34G
notes: Humanized anti-human CD52 monoclonal antibody; made in HEK293 and in CHO cells; also called CTL; CTL1
For B6, the Kd was 28 nM in the assay with CD52 peptide #741 [7]; 1.7 nM and 2.2 nM in assay [8]; 10 nM and 8.9 nM in the assay with CD52 peptide #741 [9]; 2.4 nM and 2.8 nM in [10]; 17.4 nM and 18.3 nM with CD52 peptide #741 [11]; 13.4 nM in the assay with CD52 peptide #741 [2]. Further, the Kd in [12] is 2.6 nM; with CD52 peptide #741 [4] it was 3 nM; with CD52 peptide #741 [13], 4.3 nM and 4.2 nM; with CD52 peptide #741 [6], 25.4 nM; in assay [14], 2.61 nM.

B7: Ab16 (antibody, human IgG1, kappa, V domains shown)
VH: B1 VH
VL: B1 VL with D34K
As to B7, the Kd with CD52 peptide #741 [2] was determined as 7.17 nM; with CD52 peptide #741 [4], 2.77 nM.

B8: Ab3 (antibody, human IgG1, kappa, V domains shown)
VH: B1 VH
VL: B1 VL with N33K, D34G
notes: made in HEK293 cells
In assay [15], B8 showed a Kd of 65.8 nM, a koff of 0.198 s⁻¹ and a kon of 3.1e+06 M⁻¹ s⁻¹.

B9: Ab10 (antibody, human IgG1, kappa, V domains shown)
VH: B1 VH
VL: B1 VL with D34A
B9: the Kd in assay [10] was 5 nM; in the assay with CD52 peptide #741 [4], 5.63 nM; in the assay with CD52 peptide #741 [6], 144 nM.

B10: Ab12 (antibody, human IgG1, kappa, V domains shown)
VH: B1 VH
VL: B1 VL with D34E
In assay [15], B10 gave a Kd of 39.8 nM, a koff of 0.045 s⁻¹ and a kon of 1.1e+06 M⁻¹ s⁻¹.

B11: Ab25 (antibody, human IgG1, kappa, V domains shown)
VH: B1 VH
VL: B1 VL with D34Y
As for B11, in assay [15], the koff amounted to 0.073 s⁻¹ and the kon is 700000 M⁻¹ s⁻¹. The molecule also had a Kd in assay [16] of 111 nM.

B12: Ab24 (antibody, human IgG1, kappa, V domains shown)
VH: B1 VH
VL: B1 VL with D34V
Turning to B12, the “%T0 (affinity relative to T0)” value with CD52 peptide #741 [1] was determined as 100%; with CD52 peptide #741 [3], 29.8%; in the assay with CD52 peptide #741 [5] it was 30.5%. Also, the Kd with CD52 peptide #741 [9] worked out at 10.5 nM; in [10] it was 5.6 nM; with CD52 peptide #741 [11] it was 11.3 nM; with CD52 peptide #741 [2] it was 16.9 nM; with CD52 peptide #741 [4], 5.15 nM; with CD52 peptide #741 [13], 7 nM. The Kd in the assay with CD52 peptide #741 [6] is 17.2 nM. The molecule further came in with a koff in assay [10] of 0.019 s⁻¹. The molecule also showed a kon in [10] of 3.4e+06 M⁻¹ s⁻¹.

B13: Ab4 (antibody, human IgG1, kappa, V domains shown)
VH: B1 VH
VL: B1 VL with N33Q, D34G
notes: made in HEK293 cells
B13 displayed a Kd in assay [17] of 222 nM. Also, in assay [18], the koff came out at 0.284 s⁻¹ and the kon came to 1.3e+06 M⁻¹ s⁻¹.

B14: Ab1 (antibody, human IgG1, kappa, V domains shown)
VH: B1 VH
VL: B1 VL with N33D, D34G
notes: made in HEK293 and in CHO cells
B14: the “fold reduction in affinity compared to Ab26” value in assay [19] was greater than 400 fold. In addition, the Kd in assay [20] turned out to be 1480 nM; in assay [22] it was 1250 nM; in [17], 366 nM; in [14], 1250 nM. Further, the koff in assay [20] is 0.58 s⁻¹; in [21], 0.383 s⁻¹; in assay [22] it was 0.383 s⁻¹; in [18], 0.421 s⁻¹. Moreover, the kon in assay [20] came to 400000 M⁻¹ s⁻¹; in assay [22], 300000 M⁻¹ s⁻¹; in assay [23], 306000 M⁻¹ s⁻¹; in assay [18], 1.1e+06 M⁻¹ s⁻¹.

These data come from patent US20160024219A1 (Sanofi, published 2016).
